Measurements from patent publication US20250249111A1, “ERIBULIN-BASED ANTIBODY-DRUG CONJUGATES AND METHODS OF USE” (priority 2022, published 2025).

Legend:
Type in all cases: in vivo, human
[1] = tested on: platinum resistant ovarian cancer (PROC); assay: Dose-response and exposure-response (E-R) analysis for ORR in subjects with PROC; settings: for ORR (%): PROC
Procedure: MORAb-202 was administered to subjects (N=58) with platinum resistant ovarian cancer (PROC) over a body weight (BW)-based dose range of 0.3 to 1.2 mg/kg. All doses were administered at Q3W. A dose-response assessment was carried out to calculate a relationship between dose and objective response rate (ORR) over this dose range. Clinical pharmacology assessments were conducted to evaluate the dose relationships between MORAb-202 and objective response rates (ORR) or ILD. The dose-response relationships were calculated using logistic regression analyses. An E-R efficacy (ORR) analysis was conducted with PROC subjects (N=58) across the dose range of 0.3 to 1.2 mg/kg Q3W. […] Exposure (AUC) was the only significant predictor of the probability of an objective response in multivariate analysis (as shown in FIG. 1). Age, weight, non-high grade serous OC (versus high grade serous OC), ECOG-PS (1 vs 0), and expansion (versus dose escalation) were not significant predictors of an objective response (OR). Higher doses above 1.2 mg/kg Q3W would be expected to result in a higher probability of an OR, given linear PK and lack of saturation of OR across the current dose range. Based on the results of the E-R analysis, clinically meaningful efficacy is expected across the dose range of 0.68 to 1.2 mg/kg. However, as described in section 1.2.3, an overlapping AUC dependence to ILD is observed.

[2] = tested on: subjects with PROC, endometrial cancer (EC), triple negative breast cancer (TNBC), and non-small cell lung cancer (NSCLC); assay: Dose-response relationship for ILD across tumor types
Procedure: MORAb-202 was administered to subjects (N=82) with PROC, endometrial cancer (EC), triple negative breast cancer (TNBC), and non-small cell lung cancer (NSCLC) over a body weight (BW)-based dose range of 0.3 to 1.2 mg/kg. All doses were administered at Q3W. A dose-response assessment was carried out to calculate a relationship between dose and ILD rate over this dose range.
Clinical pharmacology assessments were conducted to evaluate the dose relationships between MORAb-202 and objective response rates (ORR) or ILD. The dose-response relationships were calculated using logistic regression analyses.

[3] = tested on: subjects with PROC and across tumor types (PROC, EC, TNBC, and NSCLC); assay: Exposure-response (E-R) analysis for ILD in subjects with PROC and across all tumor types; settings: N=96 in total (48/96); PROC 0.3 to 1.2 mg/kg Q3W and across tumor types 0.9 to 1.2 mg/kg Q3W
Procedure: An E-R analysis of ILD was conducted with data from subjects with PROC across the dose range of 0.3 to 1.2 mg/kg Q3W as well as subjects across tumor types (PROC, EC, TNBC, and NSCLC) across the dose range of 0.9 to 1.2 mg/kg Q3W (N=96 in total). Forty-eight subjects had ILD identified by expert review for an ILD rate of 50% (48/96) across both subject groups and dose ranges. AUC and age were significant predictors in multivariate analysis with both higher AUC and higher age predicting a higher probability of ILD. Weight, albumin, ECOG-PS (1 vs 0), Study, and tumor type (OC vs other) were not significant predictors. The probability of ILD by AUC was predicted at the median age (60 years) and plotted along with the observed ILD rate for each exposure quartile (as shown in FIG. 2).

[4] = MORAb-202 population pharmacokinetics (PPK) model
Procedure: Different dosing regimens were simulated to select a dose of MORAb-202 that would minimize ILD rate while maintaining a high ORR. Stochastic simulations were conducted using the MORAb-202 population pharmacokinetics (PPK) model shown in Table 13 to predict AUC and Cmax for different dosing regimens. […] BW and serum albumin were significant covariates on CL (total clearance) and BW on volume of distribution. Five dosing regimens were simulated: 1) flat dose of 63 mg; 2) BW-based dose of 0.9 mg/kg; 3) BW-based dose of 0.9 mg/kg with a maximum total dose cap of 70 mg; 4) adjusted ideal body weight (AIBW)-based dose of 1.0 mg/kg; and 5) BSA-based dose of 33 mg/m^2 (equivalent to BW-based dose of 0.9 mg/kg). All dosing regimens were simulated on a Q3W treatment cycle.

[5] = tested on: subjects with ovarian cancer (OC) and endometrial cancer (EC); assay: Preliminary results from Phase 1/2 trial, BSA-based dosing cohorts
Source text: MORAb-202 will be administered as an intravenous (IV) infusion once every 3 weeks (21-day cycle). Treatment will stop upon intolerable toxicity, disease progression, or subject withdrawal for any reason. The Dose-Confirmation part will evaluate the safety and preliminary efficacy of MORAb-202 at selected dose levels in subjects with OC and EC. There will be approximately 30 subjects in the Dose-Confirmation part in 4 study treatment cohorts. If at any time ≥2 Grade ≥3 ILD/pneumonitis (National Cancer Institute Common Terminology Criteria for Adverse Events [NCI CTCAE v5.0]) events are observed, the sponsor will pause enrollment, pending IDMC review. The initial cohort will enroll 6 subjects at 25 mg/m^2 of MORAb-202. The dosing regimen for this study is body surface area (BSA)-based dosing. The dose levels to be used in this portion of the study have been matched to body weight doses of 0.9 mg/kg and 0.68 mg/kg with BSA doses of 33 mg/m^2 and 25 mg/m^2 respectively. The BSA dose equivalents were confirmed using predictions from a MORAb-202 population PK model (described in Example 1). This revised dosing regimen has been implemented in the Dose-Confirmation part of this study due to the potential to reduce the ILD risk in higher body weight subjects whilst using doses within the therapeutic index of MORAb-202. The dose evaluation part of the study was designed with two sequential cohorts at 25 mg/m^2 and 33 mg/m^2. Enrollment has been completed in the two sequential cohorts. A total of 14 subjects were enrolled and treated with MORAb-202 with 7 subjects in each cohort. Further investigation will continue at 25 mg/m^2 Q3W. […] BSA-based dosing decreased the total amount of drug (mg) compared with BW-based estimated total dose in most subjects. Additional testing is planned for every two weeks and for once per week dosing regimens.

[6] = PROC subjects (N=58), 0.3 to 1.2 mg/kg Q3W
[7] = BW-based dose 0.45 mg/kg Q3W, N = 3
[8] = BW-based dose 1.2 mg/kg Q3W, N = 24
[9] = 25 mg/m^2 Q3W, preliminary, 7 subjects per cohort

MORAb-202
ORR ([1]; PROC subjects (N=58) across the dose range of 0.3 to 1.2 mg/kg Q3W (23/58)): 39.7% | subjects with a CR (complete response) [1, 6]: 2 | subjects with a PR (partial response) [1, 6]: Twenty-one | ORR (%) ([1]; BW-based dose 0.3 mg/kg Q3W, N = 1): 0 (0) % | ORR (%) [1, 7]: 0 (0) % | ORR (%) ([1]; BW-based dose 0.68 mg/kg Q3W, N = 2): 50% | ORR (%) ([1]; BW-based dose 0.9 mg/kg Q3W, N = 28, 0.9 mg/kg): 32.1% | ORR (%) [1, 8]: 54.2% | ILD (%) ([2]; BW-based dose 0.3 mg/kg Q3W, N = 3): 0 (0) % | ILD (%) [2, 7]: 0 (0) % | ILD (%) ([2]; BW-based dose 0.68 mg/kg Q3W, N = 6): 16.7% | ILD (%) ([2]; BW-based dose 0.9 mg/kg Q3W, N = 46): 37.0% | ILD (%) [2, 8]: 58.3% | ILD rate (ILD identified by expert review) [3]: 50% | dose proportionality of exposures ([4]; PPK analysis): dose proportional | Inter-Individual Variabilty R CL-V1 ([4]; final PPK model): 0.577 | Q, estimate ([4]; final PPK model): 0.008039 L/h | Residual Additive (SD, ug/mL) ([4]; final PPK model): 0.0992 µg/mL | V1, estimate ([4]; final PPK model): 2.482 L | V2, estimate ([4]; final PPK model): 1.875 L | CL (total clearance), estimate ([4]; final PPK model, 2-compartment, IV infusion): 0.01595 L/h | BW on V1 (exponent), estimate ([4]; final PPK model, covariate): 0.559 | Mean PK profiles compared with those of a 0.68 mg/kg dose ([5]; 25 mg/m^2, MORAb-202, total antibody, and released eribulin): comparable | anti-tumor activity [5, 9]: initial anti-tumor activity | safety [5, 9]: Acceptable safety
